Results reported in patent US20100243450, “NON-EQUILIBRIUM CAPILLARY ELECTROPHORESIS OF EQUILIBRIUM MIXTURES (NECEEM)-BASED METHODS FOR DRUG AND DIAGNOSTIC DEVELOPMENT” (published 2010).

Tests used:
[1] = biological target: T1, SSB (single-stranded DNA-binding protein) (UniProt P0AGE0 P0AGE0:2-178); assay: NECEEM run buffer 25 mM tetraborate pH 9.4 with 100 nM SSB; binds via single-stranded overhang; details: chain copies: 4; label: 5'-fluorescein on DNA-1; duplex with 10-nt single-stranded overhang
T1 sequence (P0AGE0 2-178, one chain of several): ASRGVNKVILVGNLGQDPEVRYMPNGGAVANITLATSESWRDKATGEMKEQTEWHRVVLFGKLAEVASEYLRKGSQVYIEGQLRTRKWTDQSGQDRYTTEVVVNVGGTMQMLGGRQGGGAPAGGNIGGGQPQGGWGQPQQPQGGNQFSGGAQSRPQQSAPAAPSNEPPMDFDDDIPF

[2] = biological target: T1, SSB (single-stranded DNA-binding …); assay: NECEEM; 25 mM tetraborate pH 9.4, incubated at room temperature; koff 3.3e-2 s-1, kon 1.2e5 M-1 s-1; details: chain copies: 4; label: 5'-fluorescein
Description: SSB and a fluorescently-labeled 15-mer ssDNA oligonucleotide, 5′-fluorescein-[…] ([…]) were used in this example (Berezovski and Krylov J. Amer. Chem. Soc. 2002, 124, 13674). NECEEM separation of protein-DNA complexes was performed using a laboratory-built CE instrument with fluorescence detector described in detail elsewhere (Wu and Dovichi J. Chromatogr. 1989, 480, 141). A 488 nm line of an Argon-ion laser was utilized to excite the fluorescence of the DNA. Uncoated fused silica capillaries of 40 cm×20 μm I.D.×150 μm O.D. were used. The electrophoresis was run with a positive electrode at the injection end biased at +24 kV. The run buffer for NECEEM was 25.0 mM tetraborate at pH 9.4. The samples were injected into the capillary by a pressure pulse of 1 s×9.1 kPa; the length of corresponding sample plug was 0.93 mm as was calculated using the Poiseulle equation (Krylov et al. Anal. Chem. 2000, 72, 872). The capillary was rinsed with the run buffer solution for 2 minutes prior to each run. At the end of each run, the capillary was rinsed with 100 mM NaOH for 2 minutes, followed by a rinse with deionized water for 2 minutes.
Equilibrium mixtures of SSB, fDNA and SSB•fDNA complex were prepared by mixing solutions of 16 μM SSB and 205 nM fDNA in the run buffer at a desired volume ratio and incubating them at room temperature to reach equilibrium prior to the analysis. […]

[3] = biological target: T1, SSB (single-stranded DNA-binding …); assay: NECEEM run buffer 25 mM tetraborate pH 9.4 with 100 nM SSB; fully double-stranded, not bound; details: chain copies: 4; label: 5'-fluorescein on DNA-1; duplex without single-stranded overhang

B1: DNA-1/DNA-3 hybrid (mixed)
DNA 1: GCGGAGCGTGGCAGG
DNA 2: CCTGCCACGCTCCGCTCTAAAAATAA
- binding result [1]: binds

Binder: GCGGAGCGTGGCAGG (ssDNA) [fDNA 15-mer (DNA-1)]
- Kd [2]: 280 nM

B2: DNA-1/DNA-3/DNA-2 hybrid (dsDNA)
DNA 1: GCGGAGCGTGGCAGG
DNA 2: CCTGCCACGCTCCGCTCTAAAAATAA
DNA 3: TTATTTTTAG
- binding result [3]: no binding
